Data published in patent US20090188009A1, “HEAT SHOCK RNA FROM VARIOUS SPECIES AND ITS USE IN ACTIVATION OF HEAT SHOCK TRANSCRIPTION FACTOR, IN TREATMENT OF VARIOUS DISEASES IN ANIMALS AND IN GENERATION OF STRESS-RESISTANT PLANTS” (New York University, published 2009).

B1: HSE oligonucleotide (dsDNA)
DNA 1: GCCTCGAATGTTCGCGAAGTTTCG
DNA 2: CGAAACTTCGCGAACATTCGAGGC

Tests used:
[1] = target: purified recombinant mouse HSF1 (heat shock transcription factor 1), released from GST-HSF1 by thrombin cleavage (mouse) (UniProt P38532); test: cell-based or functional assay
HSF1 = HSF1 (Mus musculus, UniProt P38532 P38532:1-525); test: EMSA; trimeric HSF1 activated by eEF1A plus HSR1 (BHK, HeLa or T3 sense transcript); about 5% of HSF1 activated; 1.5 mM MgCl2, 2 mM DTT; settings: tags: expressed as N-terminal GST fusion from pGex-2T in E. coli, thrombin cleaved; chain copies: 3; label: 32P end
Procedure: cDNAs of HSR1 were cloned from both HeLa and BHK cells (see Methods), and the coding strand was identified in a functional assay (FIG. 5A). As shown in the upper panel of FIG. 5A, the sense (T3) and antisense (T7) HSR1s were transcribed in vitro by T3 and T7 RNA polymerases, respectively, from PCR fragments carrying T3 or T7 promoters on each side of HSR1. The resulting synthetic RNAs were tested in the minimal HSF1 activating system (FIG. 5A, lower panel). For the reconstitution experiment shown in FIG. 5A, recombinant mouse HSF1 was used along with eEF1A purified from rat liver (as described above). HSR1 isolated from heat-shocked BHK or HeLa cells (lanes 7, 8) and HSR1-T3 (lane 10) activated HSF when added together with purified eEF1A. However, neither component alone was capable of activating HSF1 (lanes 2-6). The slight stimulating effect of isolated eEF1A (lane 2) on HSF1 activation results from the residual amount of co-purified HSR1, and could be eliminated by RNAse A treatment. In FIG. 5A, quantitation of HSF1 activation is presented as the fold increase relative to a background control. Under these conditions, about 5% of the total HSF1 was activated.

HSF1, sequence (P38532 whole entry, the tested form may be a part, one chain of several): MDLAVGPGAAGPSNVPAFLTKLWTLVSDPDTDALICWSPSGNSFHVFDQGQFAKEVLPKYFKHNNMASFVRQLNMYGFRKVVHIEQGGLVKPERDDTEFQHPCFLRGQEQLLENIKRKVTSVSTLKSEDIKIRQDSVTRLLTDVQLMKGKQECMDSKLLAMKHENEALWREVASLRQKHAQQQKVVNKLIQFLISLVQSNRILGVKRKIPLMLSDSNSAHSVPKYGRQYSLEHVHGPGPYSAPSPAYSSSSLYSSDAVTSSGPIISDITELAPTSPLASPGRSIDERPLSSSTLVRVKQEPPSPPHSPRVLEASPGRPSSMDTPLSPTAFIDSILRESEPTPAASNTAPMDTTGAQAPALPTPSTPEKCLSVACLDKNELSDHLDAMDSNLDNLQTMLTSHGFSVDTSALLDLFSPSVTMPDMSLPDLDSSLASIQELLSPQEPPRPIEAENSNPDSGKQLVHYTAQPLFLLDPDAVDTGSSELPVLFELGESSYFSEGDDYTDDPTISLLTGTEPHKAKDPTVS
purified recombinant mouse HSF1 (heat shock transcription factor 1), released from GST-HSF1 by thrombin cleavage (mouse), sequence (P38532 other isoform, or with tags, fused parts or gaps limits assumed): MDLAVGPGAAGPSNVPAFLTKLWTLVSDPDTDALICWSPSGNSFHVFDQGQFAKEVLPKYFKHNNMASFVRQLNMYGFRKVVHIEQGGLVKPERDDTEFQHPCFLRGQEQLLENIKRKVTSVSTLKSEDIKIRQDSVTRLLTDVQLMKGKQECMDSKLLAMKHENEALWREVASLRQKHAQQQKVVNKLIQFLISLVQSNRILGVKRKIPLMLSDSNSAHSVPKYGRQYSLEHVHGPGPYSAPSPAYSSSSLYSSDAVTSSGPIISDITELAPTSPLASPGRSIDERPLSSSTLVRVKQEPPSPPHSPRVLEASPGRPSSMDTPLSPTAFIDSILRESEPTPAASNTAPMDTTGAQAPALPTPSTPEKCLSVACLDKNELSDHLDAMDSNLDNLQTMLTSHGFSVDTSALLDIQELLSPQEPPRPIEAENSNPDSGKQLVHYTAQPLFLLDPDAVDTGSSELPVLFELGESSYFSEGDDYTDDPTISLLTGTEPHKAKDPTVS

Molecule | HSF1 activation (DNA binding to HSE, EMSA) in the reconstituted system [1] [%] | binding result (HSF1)
eEF1A purified from rat liver (from UniProt P62630 2-462) | 5 | –
B1 | – | binds
